Where only a bound is given, the exact number is not on record here.

This note sets out measurements from the Immune Epitope Database (IEDB).

In test [1] the target is HLA-A*02:01. In words: IEDB peptide-MHC binding, purified MHC/competitive/radioactivity; filed as Kd, often an IC50 or EC50 that approximates it; ≥ and ≤ were set here for values at or beyond the usual limits of such assays.
The target of test [2] is HLA-A*02:06. Described as above.
The target of test [3] is HLA-A*02:17. Described as above.
The target in test [4] is HLA-A*02:03. Described as above.
The target of test [5] is HLA-B*08:01. Described as above. The note with it: source organism: Dengue virus 4 Philippines/H241/1956.
Test [6] addresses HLA-A*68:02. In words: IEDB peptide-MHC binding, purified MHC/competitive/fluorescence; filed as Kd, often an IC50 or EC50 that approximates it; ≥ and ≤ were set here for values at or beyond the usual limits of such assays.
Test [7] deals with HLA-B*45:01. Kind of test: IEDB peptide-MHC binding, purified MHC/competitive/radioactivity; filed as Kd, often an IC50 or EC50 that approximates it; ≥ and ≤ were set here for values at or beyond the usual limits of such assays.
The target of test [8] is HLA-B*44:02. The test is described as above.
The target of test [9] is HLA-B*40:02. The test is described as above.
In test [10] the target is HLA-B*40:01. Described as above.
Test [11] addresses HLA-B*18:01. The test is described as above.
Test [12] has as its target HLA-B*44:03. The description is as above.
The target in test [13] is HLA-B*51:01. Described as above. Particulars: source organism: Dengue virus 2 Jamaica/1409/1983.
Test [14] has as its target HLA-A*68:02. The test is described as above. The note with it: source organism: Dengue virus 3 Singapore/8120/1995.
Test [15] concerns the target HLA-B*58:01. The description is as above. The note with it: source organism: Dengue virus 4 Philippines/H241/1956.
Test [16] deals with HLA-A*24:03. Kind of test: IEDB peptide-MHC binding, purified MHC/competitive/fluorescence; filed as Kd, often an IC50 or EC50 that approximates it; ≥ and ≤ were set here for values at or beyond the usual limits of such assays.
The target in test [17] is HLA-B*46:01. The test is described as above. The note with it: source organism: Homo sapiens.
Test [18] addresses HLA-B*57:01. The description is as above. Particulars: source organism: Homo sapiens.
For test [19], the target named is HLA-A*02:01. The test is described as above. The note with it: source organism: Homo sapiens.
Test [20] deals with HLA-B*15:01. Described as above. Particulars: source organism: Homo sapiens.
Test [21] addresses HLA-A*03:01. The test is described as above. The note with it: source organism: Homo sapiens.
Test [22] concerns the target HLA-B*27:03. Described as above. The note with it: source organism: Homo sapiens.
For test [23], the target named is HLA-A*26:01. Described as above. Particulars: source organism: Homo sapiens.
In test [24] the target is HLA-B*18:01. Described as above. The note with it: source organism: Homo sapiens.
Test [25] addresses HLA-A*23:01. Kind of test: IEDB peptide-MHC binding, purified MHC/competitive/radioactivity; filed as Kd, often an IC50 or EC50 that approximates it; ≥ and ≤ were set here for values at or beyond the usual limits of such assays. The note with it: source organism: Lassa virus Josiah.
Test [26] deals with HLA-A*29:02. Described as above. The note with it: source organism: Lassa virus Josiah.
Test [27] addresses HLA-A*24:02. Described as above. Particulars: source organism: Lassa virus Josiah.
[28] abbreviates: source organism: Dengue virus 2 Jamaica/1409/1983.
Where [29] appears, read: source organism: Dengue virus 4 Philippines/H241/1956.
The mark [30] stands for this setting: source organism: SARS coronavirus Tor2.
[31] abbreviates: source organism: Lymphocytic choriomeningitis virus (strain WE).
[32] abbreviates: source organism: Dengue virus 1 Singapore/S275/1990.
Setting [33] is: source organism: Dengue virus 1 Brazil/97-11/1997.
The mark [34] stands for this setting: source organism: Dengue virus 3 China/80-2/1980.
Setting [35] is: source organism: Dengue virus 3 Singapore/8120/1995.
[36] abbreviates: source organism: Dengue virus 1 Nauru/West Pac/1974.
Setting [37] is: source organism: Dengue virus 3 Martinique/1243/1999.
Where [38] appears, read: source organism: Lymphocytic choriomeningitis virus (strain Armstrong).
[39] abbreviates: source organism: Mammarenavirus juninense.
Setting [40] is: source organism: Lassa virus Josiah.

As for ALIFILLTAV, the Kd is 0.498 nM in test [1] (setting [28]), 56.8 nM in test [2] (setting [28]), at least 39400 nM in test [3] (setting [28]) and 13.2 nM in test [4] (setting [28]).

Consider ALWDVPSPA, for which the Kd came out at 2.72 nM in test [1] (setting [29]), 885 nM in test [3] (setting [29]) and 16.8 nM in test [4] (setting [29]).

As for CLWPKTHTL, the Kd came out at 13.8 nM in test [1] (setting [29]), 251 nM in test [3] (setting [29]) and 5.74 nM in [5].

In test [6] (source organism: Burkholderia mallei NCTC 10229), ELWDPSTEA had a Kd of 78.1 nM.

In the case of FEEAALCTFL, the dissociation constant (Kd) was 163 nM in [7] (setting [30]); 96.2 nM in [8] (setting [30]); 14 nM in [9] (setting [30]); 1.98 nM in [10] (setting [30]); 477 nM in [11] (setting [30]); 45.9 nM in test [12] (setting [30]).

Consider FLFLMSGKGI, for which the Kd turned out to be 5580 nM in test [13], 39.6 nM in [1] (setting [28]), 1320 nM in test [3] (setting [28]) and 11.5 nM in test [4] (setting [28]).

In the case of KMEKASFIEV, the Kd in test [1] (setting [28]) is 143 nM; in test [3] (setting [28]), 1860 nM.

For LDVLCPSSL, the dissociation constant Kd in test [7] (setting [31]) was at least 77700 nM; in [8] (setting [31]) it was at least 22200 nM; in test [9] (setting [31]), 487 nM; in test [10] (setting [31]) it was at least 23600 nM; in [11] (setting [31]) it was at least 77500 nM; in [12] (setting [31]), at least 78100 nM.

With LMLLALIAV, the Kd was determined as 23.3 nM in test [1] (setting [32]), 8.08 nM in [2] (setting [33]) and 553 nM in test [3] (setting [32]).

With LMLVALLGA, the Kd came to 10400 nM in [1] (setting [29]) and 2920 nM in test [3] (setting [29]).

In the case of MIAGVLFTFV, the dissociation constant Kd in [1] (setting [34]) was determined as 10.7 nM; in test [2] (setting [35]) it was 2.44 nM; in test [14], 1.75 nM; in test [3] (setting [34]) it was 423 nM; in test [4] (setting [35]), 1.85 nM.

Take MLDVDLHPA: the Kd in [1] (setting [36]) came out at 75.2 nM; in test [2] (setting [36]) it was 18 nM; in test [3] (setting [36]), 19800 nM.

NCADHFEGV: in [6] (source organism: Escherichia coli HS), the Kd was 1.5 nM.

Regarding PASAAQRRGR, the Kd in test [15] worked out at 15400 nM.

PFGQWDQTF registered a Kd in test [16] (source organism: Yersinia pestis Antiqua) of 209 nM.

Regarding QEYADVFHLY, the dissociation constant Kd was determined as 608 nM in [7] (setting [30]); 11.9 nM in test [8] (setting [30]); 110 nM in [9] (setting [30]); 553 nM in test [10] (setting [30]); 147 nM in test [11] (setting [30]); 6.61 nM in test [12] (setting [30]).

Regarding QLWTALISL, the figures for the Kd in test [1] (setting [37]) and in test [3] (setting [37]) were 1.45 nM and 234 nM, respectively.

Turning to REAVESCPL, the Kd in test [7] (setting [38]) was at least 60800 nM; in test [8] (setting [38]), 5840 nM; in [9] (setting [38]), 58.7 nM; in [10] (setting [38]) it was 11100 nM; in test [11] (setting [38]), 10300 nM; in test [12] (setting [38]), 13200 nM.

Regarding REFVFKNKDG, the Kd in test [7] (setting [30]) is 5420 nM; in test [8] (setting [30]) it was 11500 nM; in [9] (setting [30]), 11500 nM; in [10] (setting [30]), 156 nM; in test [11] (setting [30]), at least 70500 nM; in test [12] (setting [30]), 515 nM.

As for SDTQIPGVC, the Kd is at least 51000 nM in [7] (setting [39]); at least 56200 nM in [8] (setting [39]); 12200 nM in test [9] (setting [39]); at least 65600 nM in test [10] (setting [39]); at least 77500 nM in test [11] (setting [39]); at least 78100 nM in test [12] (setting [39]).

Take SEAFEYYHTL: the Kd in test [7] (setting [30]) was 60.4 nM; in test [8] (setting [30]) it was 10.5 nM; in [9] (setting [30]), 6.54 nM; in [10] (setting [30]) it was 1.18 nM; in test [11] (setting [30]) it was 2140 nM; in test [12] (setting [30]), 18.4 nM.

Regarding SETLLPLTQY, the equilibrium dissociation constant (Kd) in test [7] (setting [30]) is 1750 nM; in test [8] (setting [30]), 52.1 nM; in [9] (setting [30]) it was 1880 nM; in test [10] (setting [30]), 13100 nM; in test [11] (setting [30]), 66.5 nM; in [12] (setting [30]), 33.2 nM.

As to SEVGICLST, the Kd in [7] (setting [30]) came out at 8.52 nM; in test [8] (setting [30]), 120 nM; in [9] (setting [30]) it was 10.6 nM; in [10] (setting [30]), 241 nM; in [11] (setting [30]), 4510 nM; in test [12] (setting [30]) it was 20.4 nM.

As to SFYYIWKSYV, the Kd in [7] (setting [30]) is 1150 nM; in test [8] (setting [30]), 415 nM; in test [9] (setting [30]), 2320 nM; in test [10] (setting [30]), 1150 nM; in test [11] (setting [30]), at least 70500 nM; in test [12] (setting [30]) it was 319 nM.

With VLMLVAHYA, the Kd turned out to be 6.67 nM in test [1] (setting [32]), 13200 nM in [3] (setting [32]) and 2.73 nM in test [4] (setting [33]).

Regarding WLGHPFTPV, the dissociation constant Kd in test [17] was at least 20000 nM; in test [18] it was at least 20000 nM; in [19], 0.3 nM; in test [16] (source organism: Homo sapiens), at least 20000 nM; in test [20], at least 20000 nM; in test [21] it was at least 20000 nM. Besides, the Kd in test [22], in test [23] and in test [24] was at least 20000 nM in each case.

As for YDHALMSII, the equilibrium dissociation constant (Kd) in test [7] (setting [40]) is at least 68600 nM; in test [25], 7730 nM; in test [8] (setting [40]), 7050 nM; in [9] (setting [40]) it was 49.5 nM; in [26], at least 46600 nM; in test [10] (setting [40]), at least 26600 nM. Further, the Kd in test [11] (setting [40]) was at least 25400 nM; in [27], at least 30800 nM; in [12] (setting [40]) it was at least 33400 nM.

As to YLDVDLHPA, the Kd in [1] (setting [34]) is 4.42 nM; in test [2] (setting [37]), 37.2 nM; in test [3] (setting [34]) it was 1890 nM.
